Assay [1] has as its target T1, Biotinylated TRAIL (AM100200-Peprotech) (Homo sapiens (Human), UniProt P50591 114-281, biotinylated (sites not given)). The assay is described as follows: competition ELISA, soluble TR4 (TR4-Fc positive control) competes with plate-captured TR4-Fc for biotinylated TRAIL; assay 1. The protocol: (§1) Goat anti-human Fc was diluted to 0.1 micrograms/ml in coating buffer. The Immulon 4 microplate was coated with 100 microliters per well of the Goat anti-human Fc solution and incubated overnight at 4° C. The coating solution was decanted from the plate, and blocking solution was dispensed at 200 microliters per well. The plate was incubated at room temperature for 1 hour. After the 1 hour incubation period, the blocking solution was decanted from the plate and 1 microgram/mL of TR4-Fc was dispensed at 100 microliters/well and incubated for 2 hours at room temperature. After the incubation, the plate was washed five times manually using a Wheaton manifold.
(§2) Hybridoma supernatants were (previously) prepared in a low binding dilution plate using diluent. The supernatants were prepared in duplicate and were diluted from the stock concentration with 2.5 fold dilutions for the 7 subsequent wells. If a purified form of the antibody was available, the starting concentration was 5 micrograms/mL. The positive control (TR4-Fc) was diluted from 5 micrograms/mL. 100 microliters was transferred into the ELISA plate and pre-incubated for 30 minutes at room temperature. 20 microliters of biotinylated TRAIL was added at 5 micrograms/mL to the 100 gL of the supernatant and mixed. The combined 120 microliters incubated for 2 hours at RT. […]
For orientation: In an ELISA, binding on a coated surface is turned into a signal by an enzyme label.

For assay [2], the target named is T1, Biotinylated TRAIL (AM100200-Peprotech). The assay can be described thus: competition ELISA, soluble TR4 (TR4-Fc positive control) competes with plate-captured TR4-Fc for biotinylated TRAIL; assay 2. How it is done:
as §1, §2

As usually defined, the IC50 is the concentration that inhibits the measured activity by half. A lower IC50 goes with higher potency.

T1 sequence (P50591 114-281 limits assumed): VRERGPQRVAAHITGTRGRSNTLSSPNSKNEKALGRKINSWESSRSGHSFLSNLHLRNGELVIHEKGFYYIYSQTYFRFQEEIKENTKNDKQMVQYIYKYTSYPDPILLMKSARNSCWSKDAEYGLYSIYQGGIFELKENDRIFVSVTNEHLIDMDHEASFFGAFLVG

B1: TR4-Fc fusion protein (Fc fusion)
chain: ATIKLHDQSIGTQQWEHSPLGELCPPGSHRSERPGACNRCTEGVGYTNASNNLFACLPCTACKSDEEERSPCTTTRNTACQCKPGTFRNDNSAEMCRKCSTGCPRGMVKVKDCTPWSDIECVHKESGNGHNI
notes: also called TR4 (in the form of Fc fusion protein); not shown: Fc region
In the case of B1, the IC50 is 0.491 µg/mL in assay [1] and 0.284 µg/mL in assay [2].

The values are drawn from patent US20030228309A1 (published 2003).
